Data taken from article PMC3958310.

Target: DENV1 envelope (E) protein, strain Western Pacific 74, on the virus surface (dengue virus serotype 1, strain Western Pacific 74)

B1: Fab fragment of HMAb 1F4 (Fab, V domains shown)
VH: QVQLVESGGGVVQPGRSLRLSCAASGFTFSAYGMHWVRQAPGKGLEWVAIIWYDGSNKYYADSVKGRFTISRDNSKNTLHLQMNSLRAEDTAIYYCARDKNPGTKPYYHYGMDVWGQGTTVTVSS
VL: QSVLTQPPSVSEAPRQRVTISCSGSSSNIGNNAVNWYQQFPGKAPKLLIYYDDLLPSGVSDRFSGSKSGTSASLAISGLQSEDEAYYYCAAWDDSLIGVVFGGGTKLTVL
B1 showed a neutralisation of DENV1 (Western Pacific 74) in U937 cells expressing DC-SIGN, flow cytometry, Neut50 of 0.11 µg/mL.
